According to patent US20090082262A1 (published 2009):
*: point of attachment. Nonanoyl = CCCCCCCCC(=O)*

Tests used:
[1] = molecular target: T1, chemokine receptor 5 (CCR5) (human, UniProt P51681 1-352); assay: competition with [125I]-MIP-β1, CHO-K1 membranes
T1 construct: whole, on cells
Procedure: (§1) For determination of its binding properties, CHO-K1 cells were used which were stably transfected with the chemokine receptors CCR1, CCR3, CCR5. Therefore, crude membrane extracts prepared from the CHO-K1 cell lines expressing the various GPC were used in radioligand binding assays. Competition binding assays were performed in Minisorp tubes (Nunc, Roskilde, Denmark) in a total volume of 100 μl containing 0.1 nM iodinated ligand as tracer, variable concentrations of competitors and defined amount of membranes. Total binding was measured in the absence of competitor and non-specific binding was measured with a 100-fold excess, of unlabelled ligand. Samples were incubated for 90 minutes at 25° C. then filtered through GF/B filters presoaked in 0.3% polyethylenenimine. Filters were counted in a gamma scintillation counter (Packard). Binding parameters were determined with the PRISM software (Graphpad software, San Diego, Calif.) using non-linear regression applied to a one site competition model.
FIG. 6 represents the compound PHC-1, full size HCC-1 and reference chemokines tested on CCR1, CCR3 and CCR5. Competition binding assays were performed with [¹²⁵I]-RANTES for CCR1, [¹²⁵I]-Eotaxin for CCR3 and [¹²⁵I]-MIP-1, for CCR5. PHC-1, HCC1, MIP-1, RANTES, Eotaxin and MCP-4 were used as competitors. FIGS. 3 and 4 show the binding of additional chemokine compounds of the invention to the CCR5 and CCR1 respectively. Competition assays were performed with [¹²⁵I]-MIP-β1 for CCR5, and [¹²⁵I]-MIP-α1 for CCR1. Each of the chemokine compounds tested was capable of binding both the CCR5 and CCR1 receptors.

[2] = molecular target: T1, chemokine receptor 5 (CCR5); assay: radioligand competition binding as in Example 4
Procedure: as §1
FIG. 6 represents the compound PHC-1, full size HCC-1 and reference chemokines tested on CCR1, CCR3 and CCR5. Competition binding assays were performed with [¹²⁵I]-RANTES for CCR1, [¹²⁵I]-Eotaxin for CCR3 and [¹²⁵I]-MIP-1, for CCR5. PHC-1, HCC1, MIP-1, RANTES, Eotaxin and MCP-4 were used as competitors. […]

[3] = molecular target: T2, chemokine receptor 1 (CCR1) (UniProt P56482 1-355); assay: competition with 125I-Rantes binding to CCR1
[4] = molecular target: T3, chemokine receptor CCR3 (UniProt P51677 1-355, limits assumed); assay: competition with 0.1 nM 125I-Eotaxin, membranes of CHO-K1 cells expressing CCR3, filtration
T3 construct: whole, on cells
T3 sequence (looked up): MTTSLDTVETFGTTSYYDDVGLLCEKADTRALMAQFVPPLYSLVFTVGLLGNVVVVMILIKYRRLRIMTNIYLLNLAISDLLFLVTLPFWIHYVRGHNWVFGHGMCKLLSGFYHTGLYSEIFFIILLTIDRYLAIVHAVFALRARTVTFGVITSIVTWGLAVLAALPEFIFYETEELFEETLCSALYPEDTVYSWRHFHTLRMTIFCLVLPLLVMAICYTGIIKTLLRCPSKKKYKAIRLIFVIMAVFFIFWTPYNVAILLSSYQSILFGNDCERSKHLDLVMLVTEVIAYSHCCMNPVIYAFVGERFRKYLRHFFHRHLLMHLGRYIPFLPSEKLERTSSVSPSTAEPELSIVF
Procedure: as §1
The processed chemokine PHC-1 was a strong competitor of ¹²⁵I-Rantes binding to CCR1 with half-maximal inhibitory concentration of 2.3±0.7 nM. (Ki±SEM).

[5] = molecular target: T2, chemokine receptor 1 (CCR1); assay: competition with 0.1 nM 125I-Rantes, membranes of CHO-K1 cells expressing CCR1, filtration
[6] = molecular target: T2, chemokine receptor 1 (CCR1); assay: radioligand competition binding on CCR1

T1 sequence (P51681 whole entry): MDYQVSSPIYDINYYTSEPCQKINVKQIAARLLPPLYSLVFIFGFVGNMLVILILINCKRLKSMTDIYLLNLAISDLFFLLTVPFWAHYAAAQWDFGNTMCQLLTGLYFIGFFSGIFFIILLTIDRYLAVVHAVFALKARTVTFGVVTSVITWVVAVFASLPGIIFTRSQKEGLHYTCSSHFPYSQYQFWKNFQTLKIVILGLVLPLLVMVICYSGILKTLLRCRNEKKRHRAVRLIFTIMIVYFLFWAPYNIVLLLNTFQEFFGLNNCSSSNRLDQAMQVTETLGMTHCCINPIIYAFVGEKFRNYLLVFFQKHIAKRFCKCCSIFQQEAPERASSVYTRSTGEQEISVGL
T2 sequence (P56482 whole entry): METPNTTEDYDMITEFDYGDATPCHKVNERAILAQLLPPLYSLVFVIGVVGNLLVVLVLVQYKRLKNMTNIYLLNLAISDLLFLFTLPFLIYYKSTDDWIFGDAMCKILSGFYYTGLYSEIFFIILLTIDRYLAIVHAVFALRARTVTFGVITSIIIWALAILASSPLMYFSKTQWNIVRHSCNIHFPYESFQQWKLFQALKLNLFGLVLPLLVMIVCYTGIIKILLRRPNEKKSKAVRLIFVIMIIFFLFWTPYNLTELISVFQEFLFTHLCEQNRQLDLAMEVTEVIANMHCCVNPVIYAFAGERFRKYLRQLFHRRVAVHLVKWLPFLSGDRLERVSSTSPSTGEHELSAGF

B1: HCC-1[11-74] (ligand)
chain: YHPSECCFTYTTYKIPRQRIMDYYETNSQCSKPGIVFITKRGHSVCTNPSDKWVQDYIKDMKEN
notes: Synthetic, oxidatively folded
B1: binds [1].

B2: NNY-HCC-1[10-74] (ligand)
chain: Nonanoyl-PYHPSECCFTYTTYKIPRQRIMDYYETNSQCSKPGIVFITKRGHSVCTNPSDKWVQDYIKDMKEN
modifications: ends and bridges not checked
notes: An N-terminally modified analog of HCC-1[10-74]; also called nonanoyl-HCC-1[10-74]
B2: binds [2].

B3: HCC-1[8-74] (ligand)
chain: RGPYHPSECCFTYTTYKIPRQRIMDYYETNSQCSKPGIVFITKRGHSVCTNPSDKWVQDYIKDMKEN
notes: Synthetic, oxidatively folded
B3: binds [1].

B4: PHC-1 (HCC-1[9-74]) (ligand)
chain: GPYHPSECCFTYTTYKIPRQRIMDYYETNSQCSKPGIVFITKRGHSVCTNPSDKWVQDYIKDMKEN
notes: Purified from human hemofiltrate or made by tryptic digestion of HCC-1 1-74; also called processed chemokine PHC-1; HCC-1, residues 9-74
B4 showed a Ki [3] of 23000 nM, an IC50 [4] of 78 nM and an IC50 [5] of 2.3 nM.

B5: HCC-1[7-74] (ligand)
chain: SRGPYHPSECCFTYTTYKIPRQRIMDYYETNSQCSKPGIVFITKRGHSVCTNPSDKWVQDYIKDMKEN
notes: Synthetic, oxidatively folded
B5: binds [1].

B6: HCC-1[10-74] (ligand)
chain: PYHPSECCFTYTTYKIPRQRIMDYYETNSQCSKPGIVFITKRGHSVCTNPSDKWVQDYIKDMKEN
notes: Synthetic, oxidatively folded
B6: binds [1].

B7: full size HCC-1 (HCC-1, residues 1-74) (ligand)
chain: TKTESSSRGPYHPSECCFTYTTYKIPRQRIMDYYETNSQCSKPGIVFITKRGHSVCTNPSDKWVQDYIKDMKEN
notes: The 74-residue chemokine, Mr 8673; also called full-length HCC-1; HCC-1, 1-74
For B7, the Ki [6] was 100 nM.
